Assay results: US11440969B2, “Use of human epididymis protein 4 (HE4) for assessing responsiveness of MUC 16-positive cancer treatment” (Genentech, Inc., priority 2016, dated 2022)

Experiment: Safety of DMUC5754A in patients: related adverse events, DLT, MTD/RP2D (NCI CTCAE v4.0)
Format: in vivo, human
Details: for On study PN = No, patients n (%) / On study PN = Yes, patients n (%) / Median time to onset of first PN on study: q1w dosing
Method: This multicenter, open-label, dose-escalation study was designed to identify the recommended Phase II dose (RP2D) of DMUC5754A in patients with platinum-resistant OC or unresectable pancreatic cancer. In the single-agent dose escalation stage utilizing a 3+3 enrollment scheme, patients were given intravenous DMUC5754A (Genentech Inc.) 0.3-3.2 mg/kg every 3 weeks (q3w) to evaluate the safety, tolerability, and pharmacokinetics of DMUC5754A. Following determination of the maximum tolerated dose (MTD), dose-expansion cohorts were enrolled at the RP2D of 2.4 mg/kg to further characterize the safety and preliminary clinical efficacy of DMUC5754A.
Dosing on a weekly (qlw) schedule was also evaluated at the RP2D, employing a 3+3 design to determine the MTD of weekly dosing, followed by a cohort expansion to further characterize the safety and activity of q1w dosing.
Safety was evaluated according to NCI CTCAE v4.0. […] The maximum tolerated dose (MTD) was defined as the dose at which ≤1 of 6 patients at an assigned dose with protocol-defined DLT. Patients who experienced a DLT or adverse event (AE) meeting DLT criteria after the DLT assessment window were allowed to delay dosing for up to 2 weeks or undergo a dose reduction.

[1] = q1w patients, over all dose levels

B1: DMUC5754A: antibody-drug conjugate: humanized IgG1 anti-MUC16 monoclonal antibody and MMAE, linked through protease labile linker maleimidocaproyl-valine-citrulline-p-aminobenzyloxycarbonyl (conjugate, chains of the INN, looked up)
VH: EVQLVESGGGLVQPGGSLRLSCAASGYSITNDYAWNWVRQAPGKGLEWVGYISYSGYTTYNPSLKSRFTISRDTSKNTLYLQMNSLRAEDTAVYYCARWTSGLDYWGQGTLVTVSS
VL: DIQMTQSPSSLSASVGDRVTITCKASDLIHNWLAWYQQKPGKAPKLLIYGATSLETGVPSRFSGSGSGTDFTLTISSLQPEDFATYYCQQYWTTPFTFGQGTKVEIK
modifications: MMAE via mc-vc-PABC linker
- protocol-defined DLTs (3.2 mg/kg q3w, OC, 1 Grade 4 hypocalcaemia and 1 Grade 3 uric acid increase, in 2 of 3 DLT-evaluable patients): 2
- Alopecia (related AE), patients n (%) (q1w 0.8 mg/kg (n = 3)): 0
- Anemia (related AE), patients n (%) (q1w 0.8 mg/kg (n = 3)): 1 (33.3%)
- Any adverse events (related), patients n (%) (q1w 0.8 mg/kg (n = 3)): 2 (66.7%)
- Arthralgia (related AE), patients n (%) (q1w 0.8 mg/kg (n = 3)): 0
- Aspartate aminotransferase increased (related AE), patients n (%) (q1w 0.8 mg/kg (n = 3)): 0
- Constipation (related AE), patients n (%) (q1w 0.8 mg/kg (n = 3)): 1 (33.3%)
- Decreased appetite (related AE), patients n (%) (q1w 0.8 mg/kg (n = 3)): 0
- Diarrhea (related AE), patients n (%) (q1w 0.8 mg/kg (n = 3)): 0
- Fatigue (related AE), patients n (%) (q1w 0.8 mg/kg (n = 3)): 0
- Headache (related AE), patients n (%) (q1w 0.8 mg/kg (n = 3)): 0
- Hypomagnesaemia (related AE), patients n (%) (q1w 0.8 mg/kg (n = 3)): 1 (33.3%)
- Hyponatremia (related AE), patients n (%) (q1w 0.8 mg/kg (n = 3)): 0
- Nausea (related AE), patients n (%) (q1w 0.8 mg/kg (n = 3)): 0
- Neutropenia (related AE), patients n (%) (q1w 0.8 mg/kg (n = 3)): 1 (33.3%)
- Peripheral neuropathy (related AE), patients n (%) (q1w 0.8 mg/kg (n = 3)): 0
- Vomiting (related AE), patients n (%) (q1w 0.8 mg/kg (n = 3)): 0
- Alopecia (related AE), patients n (%) (q1w 1.1 mg/kg (n = 7)): 1 (14.3%)
- Anemia (related AE), patients n (%) (q1w 1.1 mg/kg (n = 7)): 3 (42.9%)
- Any adverse events (related), patients n (%) (q1w 1.1 mg/kg (n = 7)): 7 (100.0%)
- Arthralgia (related AE), patients n (%) (q1w 1.1 mg/kg (n = 7)): 2 (28.6%)
- Aspartate aminotransferase increased (related AE), patients n (%) (q1w 1.1 mg/kg (n = 7)): 2 (28.6%)
- Constipation (related AE), patients n (%) (q1w 1.1 mg/kg (n = 7)): 0
- Decreased appetite (related AE), patients n (%) (q1w 1.1 mg/kg (n = 7)): 1 (14.3%)
- Diarrhea (related AE), patients n (%) (q1w 1.1 mg/kg (n = 7)): 3 (42.9%)
- Fatigue (related AE), patients n (%) (q1w 1.1 mg/kg (n = 7)): 2 (28.6%)
- Headache (related AE), patients n (%) (q1w 1.1 mg/kg (n = 7)): 2 (28.6%)
- Hypomagnesaemia (related AE), patients n (%) (q1w 1.1 mg/kg (n = 7)): 2 (28.6%)
- Hyponatremia (related AE), patients n (%) (q1w 1.1 mg/kg (n = 7)): 1 (14.3%)
- Nausea (related AE), patients n (%) (q1w 1.1 mg/kg (n = 7)): 4 (57.1%)
- Neutropenia (related AE), patients n (%) (q1w 1.1 mg/kg (n = 7)): 1 (14.3%)
- Peripheral neuropathy (related AE), patients n (%) (q1w 1.1 mg/kg (n = 7)): 1 (14.3%)
- Vomiting (related AE), patients n (%) (q1w 1.1 mg/kg (n = 7)): 2 (28.6%)
- Alopecia (related AE), patients n (%) (q1w 1.4 mg/kg (n = 7)): 2 (28.6%)
- Anemia (related AE), patients n (%) (q1w 1.4 mg/kg (n = 7)): 2 (28.6%)
- Any adverse events (related), patients n (%) (q1w 1.4 mg/kg (n = 7)): 5 (71.4%)
- Arthralgia (related AE), patients n (%) (q1w 1.4 mg/kg (n = 7)): 1 (14.3%)
- Aspartate aminotransferase increased (related AE), patients n (%) (q1w 1.4 mg/kg (n = 7)): 1 (14.3%)
- Constipation (related AE), patients n (%) (q1w 1.4 mg/kg (n = 7)): 2 (28.6%)
- Decreased appetite (related AE), patients n (%) (q1w 1.4 mg/kg (n = 7)): 3 (42.9%)
- Diarrhea (related AE), patients n (%) (q1w 1.4 mg/kg (n = 7)): 0
- Fatigue (related AE), patients n (%) (q1w 1.4 mg/kg (n = 7)): 2 (28.6%)
- Headache (related AE), patients n (%) (q1w 1.4 mg/kg (n = 7)): 0
- Hypomagnesaemia (related AE), patients n (%) (q1w 1.4 mg/kg (n = 7)): 0
- Hyponatremia (related AE), patients n (%) (q1w 1.4 mg/kg (n = 7)): 1 (14.3%)
- Nausea (related AE), patients n (%) (q1w 1.4 mg/kg (n = 7)): 4 (57.1%)
- Neutropenia (related AE), patients n (%) (q1w 1.4 mg/kg (n = 7)): 1 (14.3%)
- Peripheral neuropathy (related AE), patients n (%) (q1w 1.4 mg/kg (n = 7)): 2 (28.6%)
- Vomiting (related AE), patients n (%) (q1w 1.4 mg/kg (n = 7)): 5 (71.4%)
- Alopecia (related AE), patients n (%) (q1w 1.6 mg/kg (n = 6)): 2 (33.3%)
- Anemia (related AE), patients n (%) (q1w 1.6 mg/kg (n = 6)): 2 (33.3%)
- Any adverse events (related), patients n (%) (q1w 1.6 mg/kg (n = 6)): 6 (100.0%)
- Arthralgia (related AE), patients n (%) (q1w 1.6 mg/kg (n = 6)): 0
- Aspartate aminotransferase increased (related AE), patients n (%) (q1w 1.6 mg/kg (n = 6)): 1 (16.7%)
- Constipation (related AE), patients n (%) (q1w 1.6 mg/kg (n = 6)): 0
- Decreased appetite (related AE), patients n (%) (q1w 1.6 mg/kg (n = 6)): 1 (16.7%)
- Diarrhea (related AE), patients n (%) (q1w 1.6 mg/kg (n = 6)): 2 (33.3%)
- Fatigue (related AE), patients n (%) (q1w 1.6 mg/kg (n = 6)): 3 (50.0%)
- Headache (related AE), patients n (%) (q1w 1.6 mg/kg (n = 6)): 1 (16.7%)
- Hypomagnesaemia (related AE), patients n (%) (q1w 1.6 mg/kg (n = 6)): 2 (33.3%)
- Hyponatremia (related AE), patients n (%) (q1w 1.6 mg/kg (n = 6)): 1 (16.7%)
- Nausea (related AE), patients n (%) (q1w 1.6 mg/kg (n = 6)): 3 (50.0%)
- Neutropenia (related AE), patients n (%) (q1w 1.6 mg/kg (n = 6)): 3 (50.0%)
- Peripheral neuropathy (related AE), patients n (%) (q1w 1.6 mg/kg (n = 6)): 1 (16.7%)
- Vomiting (related AE), patients n (%) (q1w 1.6 mg/kg (n = 6)): 2 (33.3%)
- Alopecia (related AE), patients n (%) (q1w All Patients (n = 23)): 5 (21.7%)
- Anemia (related AE), patients n (%) (q1w All Patients (n = 23)): 8 (34.8%)
- Any adverse events (related), patients n (%) (q1w All Patients (n = 23)): 20 (87.0%)
- Arthralgia (related AE), patients n (%) (q1w All Patients (n = 23)): 3 (13.0%)
- Aspartate aminotransferase increased (related AE), patients n (%) (q1w All Patients (n = 23)): 4 (17.4%)
- Constipation (related AE), patients n (%) (q1w All Patients (n = 23)): 3 (13.0%)
- Decreased appetite (related AE), patients n (%) (q1w All Patients (n = 23)): 5 (21.7%)
- Diarrhea (related AE), patients n (%) (q1w All Patients (n = 23)): 5 (21.7%)
- Fatigue (related AE), patients n (%) (q1w All Patients (n = 23)): 7 (30.4%)
- Headache (related AE), patients n (%) (q1w All Patients (n = 23)): 3 (13.0%)
- Hypomagnesaemia (related AE), patients n (%) (q1w All Patients (n = 23)): 5 (21.7%)
- Hyponatremia (related AE), patients n (%) (q1w All Patients (n = 23)): 3 (13.0%)
- Nausea (related AE), patients n (%) (q1w All Patients (n = 23)): 11 (47.8%)
- Neutropenia (related AE), patients n (%) (q1w All Patients (n = 23)): 6 (26.1%)
- Vomiting (related AE), patients n (%) (q1w All Patients (n = 23)): 9 (39.1%)
- patients with AEs leading to treatment discontinuation (q1w cohorts, 3/23 patients): 13.0%
- On study PN = No, patients n (%) (Prior neuropathy = No): 10 (43%)
- On study PN = Yes, patients n (%) (Prior neuropathy = No): 2 (9%)
- Median time to onset of first PN on study (Prior neuropathy = Yes): 190 days
- On study PN = No, patients n (%) (Prior neuropathy = Yes): 9 (39%)
- On study PN = Yes, patients n (%) (Prior neuropathy = Yes): 2 (9%)
- Median time to onset of first PN on study (Total): 190 days
- On study PN = No, patients n (%) (Total): 19 (83%)
- On study PN = Yes, patients n (%) (Total): 4 (17%)
- Drug-related SAE dehydration, patients (q1w patients): 1
- Drug-related SAE diarrhea, patients (q1w patients): 1
- Drug-related SAE nausea, patients (q1w patients): 1
- Drug-related SAE posterior reversible encephalopathy syndrome, patients (q1w patients): 1
- alopecia, related AE [1]: 21.7%
- anemia, related AE [1]: 34.8%
- decreased appetite, related AE [1]: 21.7%
- diarrhea, related AE [1]: 21.7%
- fatigue, related AE [1]: 30.4%
- hypomagnesaemia, related AE [1]: 21.7%
- nausea, related AE [1]: 47.8%
- neutropenia, related AE [1]: 26.1%
- vomiting, related AE [1]: 39.1%
- Grade ≥3 related diarrhea (q1w patients, total): 8.7%
- Grade ≥3 related hyponatraemia (q1w patients, total): 8.7%
- Grade ≥3 related neutropenia (q1w patients, total): 17.4%
- RP2D (q1w schedule): 1.4 mg/kg
- Grade ≥3 related diarrhea, patients (q1w, at 1.4 mg/kg): 0
- Grade ≥3 related hyponatraemia, patients (q1w, at 1.4 mg/kg): 0
- Grade ≥3 related neutropenia, patients (q1w, at 1.4 mg/kg): 1
- MTD dose (q3w): 2.4 mg/kg
- Alopecia (related AE), patients (q3w 0.3 mg/kg (n = 3)): 0
- Any adverse events (related), patients (q3w 0.3 mg/kg (n = 3)): 3
- Arthralgia (related AE), patients (q3w 0.3 mg/kg (n = 3)): 0
- Asthenia (related AE), patients (q3w 0.3 mg/kg (n = 3)): 0
- Decreased appetite (related AE), patients (q3w 0.3 mg/kg (n = 3)): 1
- Diarrhea (related AE), patients (q3w 0.3 mg/kg (n = 3)): 0
- Dysgeusia (related AE), patients (q3w 0.3 mg/kg (n = 3)): 0
- Fatigue (related AE), patients (q3w 0.3 mg/kg (n = 3)): 0
- Hypokalemia (related AE), patients (q3w 0.3 mg/kg (n = 3)): 0
- Hypomagnesaemia (related AE), patients (q3w 0.3 mg/kg (n = 3)): 1
- Hypophosphatemia (related AE), patients (q3w 0.3 mg/kg (n = 3)): 0
- Nausea (related AE), patients (q3w 0.3 mg/kg (n = 3)): 1
- Neutropenia (related AE), patients (q3w 0.3 mg/kg (n = 3)): 0
- Peripheral neuropathy (related AE), patients (q3w 0.3 mg/kg (n = 3)): 1
